In one assay the test system is PC3 cells. Put plainly: In vitro cell viability (cell kill) assay, CCK8. It counts as cell-based, human. To be noted: Table 11, 3 days. The text has this: (§1) PRLR-overexpressing cells, including HEK293, PC3, MCF7 and NCI-N87, were generated to assess the ability of anti-PRLR conjugated antibodies to reduce cell viability. For comparative purposes, PC3 and T47D cells with overexpressed ErbB2 were also generated, as well as an MCF7 cell line over-expressing both hPRLR and hErbB2. Briefly, Lipofectamine® 2000-mediated transfection methodology was utilized to generate HEK293 cells expressing human PRLR (HEK293/hPRLR) or human ErbB2 (HEK293/hErbB2). Lipofectamine LTX with Plus Reagent was used to generate PC3 cells expressing human PRLR (PC3/hPRLR) or human ErbB2 (PC3/hErbB2). Lentiviral-mediated transduction was utilized to generate MCF7 cells expressing human PRLR (MCF7/hPRLR), NCI-N87 cells expressing human PRLR (NCI-N87/hPRLR), T47D cells over-expressing human ErbB2 (T47D/hErbB2), and MCF7 cells expressing both human PRLR and human ErbB2 (MCF7/hPRLR/hErbB2). All lines were selected for at least two weeks in complete growth media plus appropriate selection reagents. Stably expressing populations were enriched for PRLR expression via FACS using the anti PRLR antibody Control I.
(§2) Next, the ability of anti-PRLR-DM1 antibody-drug conjugates (i.e., anti-PRLR antibodies conjugated to DM1 via a non-cleavable linker [SMCC]) to reduce cell viability was determined using in vitro cell based assays. Cells were seeded in PDL-coated 96 well plates at 1500 to 10000 cells per well in complete growth media and allowed to grow overnight. For cell viability curves, ADCs or free DM1 (as the methyl disulfide derivative DM1-SMe) were added to the cells at final concentrations ranging from 500 nM to 5 pM and incubated for 3 days. The 293, PC3 and T47D cells were incubated with CCK8 (Dojindo, Rockville, Md.) for the final 1-3 hours and the absorbance at 450 nm (OD450) was determined on a Flexstation3 (Molecular Devices, Sunnyvale, Calif.). MCF7 cells were treated with Hoechst 33342 nuclear stain while being fixed with 4% formaldehyde. Images were acquired on the ImageXpress micro XL (Molecular Devices, Sunnyvale, Calif.) and nuclear counts were determined via Columbus image analysis software (Perkin Elmer, Shelton, Conn.). Background OD450 values (PC3, 293, and T47D) or nuclear counts (MCF7) from digitonin (40 nM) treated cells was subtracted from all wells and viability was expressed as a percentage of the untreated controls. IC50 values were determined from a four-parameter logistic equation over a 10-point response curve (GraphPad Prism).

Another assay has as its system HEK293 (293) cells. The assay can be described thus: In vitro cell viability (cell kill) assay, CCK8. It counts as cell-based, human. Conditions: 293; Table 11; 3 days.
Description: as §1, §2

Another assay deals with HEK293 parental cells. The assay can be described thus: FACS cell surface binding. More on the design: species or system human. The procedure: (§3) The ability of anti-PRLR antibodies to selectively bind PRLR expressing cell lines was next determined. Human, monkey Macaca fascicularis, and mouse PRLR constructs with an HA tag were stably introduced into HEK293 cells via Lipofectamine 2000-mediated transfection methodology. Transfectants (HEK293/hPRLR, HEK293/mfPRLR and HEK293/mPRLR) were selected for at least 2 weeks in complete growth media plus G418.
(§4) Cell surface expression of PRLR on 293/hPRLR cells was assessed via FACS analysis. Briefly, 1×10^5 cells were incubated with 10 μg/ml of Control antibody I, or an isotype control for 30 min on ice in antibody dilution buffer. Following two washes with antibody dilution buffer, cells were incubated with 10 μg/ml of PE conjugated anti-human secondary antibodies for 30 min on ice. Following two additional washes, samples were run on a Hypercyt® cytometer and analyzed in ForeCyt™ (IntelliCyt, Albuquerque, N. Mex.). The mean fluorescence intensities (MFI) were expressed as fold change above isotype control levels (background). FACS binding confirmed that Control I selectively bound to 293/hPRLR expressing cells with MFIs that were 30 fold above background (isotype ctrl) levels and less than 2 fold binding on parental cells.
(§5) Next, the anti-PRLR antibodies were tested via FACS for selective binding to the engineered overexpressing PRLR HEK293 cell lines, as well as to non-expressing HEK293 cells and a native PRLR expressing cell line (T47D).

Assay [1] has as its system Macaca fascicularis PRLR (mfPRLR.mmh; SEQ ID NO:403). The assay can be described thus: Surface plasmon resonance (Biacore T200), antibody-capture format. It counts as binding. Conditions: analyte mfPRLR.mmh. The procedure: (§6) Antibodies, expressed as human IgG1 Fc (i.e., “H1H” designations), were captured onto an anti-human Fc sensor surface (mAb-capture format), and soluble monomeric (hPRLR.mmh; SEQ ID NO:401, or Macaca fascicularis (mf) PRLR.mmh; SEQ ID NO:403) or dimeric (hPRLR.mFc; SEQ ID NO:402) PRLR protein was injected over the sensor surface. Measurements were conducted on a T200 Biacore instrument. Kinetic association (ka) and dissociation (kd) rate constants were determined by processing and fitting the data to a 1:1 binding model using Scrubber 2.0 curve fitting software.

Assay [2] addresses T1, dimeric human PRLR (hPRLR.mFc; SEQ ID NO:402) (Homo sapiens, UniProt P16471).
T1 construct: dimeric (hPRLR.mFc)
The assay is described as above. Type of assay: binding. To be noted: analyte hPRLR.mFc. Here is the method: as §6

Assay [3] deals with T2, monomeric human PRLR (hPRLR.mmh; SEQ ID NO:401) (Homo sapiens, UniProt P16471).
T2 construct: soluble monomeric (hPRLR.mmh); mmh (myc-myc-hexahistidine) (C)
The description is as above. Type of assay: binding. To be noted: analyte hPRLR.mmh. The procedure:
as §6

Assay [4] deals with T3, human PRLR on HEK293/hPRLR cells (Homo sapiens, UniProt P16471).
T3 construct: HA; expressed in transfected cells; host or cells: HEK293
T3 sequence (P16471 25-622): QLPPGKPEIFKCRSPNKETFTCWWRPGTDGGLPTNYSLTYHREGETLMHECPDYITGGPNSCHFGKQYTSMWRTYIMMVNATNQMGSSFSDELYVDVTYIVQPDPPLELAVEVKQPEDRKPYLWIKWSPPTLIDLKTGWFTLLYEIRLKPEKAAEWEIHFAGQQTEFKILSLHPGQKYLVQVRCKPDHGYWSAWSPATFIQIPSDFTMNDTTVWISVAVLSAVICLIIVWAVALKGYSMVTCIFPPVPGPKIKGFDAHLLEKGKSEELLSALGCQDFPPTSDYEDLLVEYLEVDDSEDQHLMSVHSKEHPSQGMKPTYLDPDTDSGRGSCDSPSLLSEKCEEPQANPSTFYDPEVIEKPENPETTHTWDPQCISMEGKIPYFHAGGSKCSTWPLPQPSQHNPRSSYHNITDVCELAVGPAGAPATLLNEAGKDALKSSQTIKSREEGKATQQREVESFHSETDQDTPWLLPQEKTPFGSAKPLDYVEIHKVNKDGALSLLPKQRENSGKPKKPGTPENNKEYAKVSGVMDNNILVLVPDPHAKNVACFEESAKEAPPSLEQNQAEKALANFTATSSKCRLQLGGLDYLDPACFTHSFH
The assay can be described thus: FACS cell surface binding. Here is the method:
as §3, §4, §5

Assay [5] concerns the target T4, monkey PRLR on HEK293/mfPRLR cells (Macaca fascicularis, UniProt A0A2K5WXK1).
T4 construct: HA; expressed in transfected cells; host or cells: HEK293
T4 sequence (A0A2K5WXK1 25-619): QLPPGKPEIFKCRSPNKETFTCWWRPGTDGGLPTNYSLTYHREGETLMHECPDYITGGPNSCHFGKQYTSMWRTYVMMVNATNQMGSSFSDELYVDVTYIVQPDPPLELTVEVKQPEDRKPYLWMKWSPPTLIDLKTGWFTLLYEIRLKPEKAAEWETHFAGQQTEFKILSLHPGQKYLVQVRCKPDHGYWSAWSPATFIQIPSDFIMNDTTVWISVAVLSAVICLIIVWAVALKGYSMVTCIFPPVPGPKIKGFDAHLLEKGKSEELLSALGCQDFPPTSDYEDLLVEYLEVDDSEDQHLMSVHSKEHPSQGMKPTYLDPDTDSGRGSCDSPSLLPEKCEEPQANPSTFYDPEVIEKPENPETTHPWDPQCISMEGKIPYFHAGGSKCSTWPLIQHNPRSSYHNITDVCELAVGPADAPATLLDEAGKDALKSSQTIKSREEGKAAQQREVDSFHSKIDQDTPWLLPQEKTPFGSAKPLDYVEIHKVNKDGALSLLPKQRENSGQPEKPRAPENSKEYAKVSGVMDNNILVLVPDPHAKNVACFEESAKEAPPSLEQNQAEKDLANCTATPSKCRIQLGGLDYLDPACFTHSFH
Put plainly: FACS cell surface binding. The procedure: as §3, §4, §5

The target in assay [6] is T5, mouse PRLR on HEK293/mPRLR cells (Mus musculus, UniProt Q08501).
T5 construct: HA; expressed in transfected cells; host or cells: HEK293
T5 sequence (Q08501 20-608): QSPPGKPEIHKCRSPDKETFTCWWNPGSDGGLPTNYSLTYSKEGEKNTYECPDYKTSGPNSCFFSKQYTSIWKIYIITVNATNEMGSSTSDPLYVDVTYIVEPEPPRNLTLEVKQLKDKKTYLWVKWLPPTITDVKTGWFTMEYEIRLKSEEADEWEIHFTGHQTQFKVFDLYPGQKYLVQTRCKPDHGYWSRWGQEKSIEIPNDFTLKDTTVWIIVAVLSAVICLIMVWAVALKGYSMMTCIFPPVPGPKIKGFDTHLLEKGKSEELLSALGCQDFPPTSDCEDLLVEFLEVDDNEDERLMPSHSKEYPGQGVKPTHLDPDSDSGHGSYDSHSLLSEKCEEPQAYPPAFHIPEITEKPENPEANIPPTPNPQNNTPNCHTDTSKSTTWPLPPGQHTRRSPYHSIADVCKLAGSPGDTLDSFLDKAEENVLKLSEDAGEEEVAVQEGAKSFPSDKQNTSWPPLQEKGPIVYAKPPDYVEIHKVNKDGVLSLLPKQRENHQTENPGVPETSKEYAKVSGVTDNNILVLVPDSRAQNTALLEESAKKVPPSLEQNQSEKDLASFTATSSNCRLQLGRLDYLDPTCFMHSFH
The assay can be described thus: FACS cell surface binding. Here is the method:
as §3, §4, §5

Assay [7] deals with T6, native PRLR expressing T47D cells (Homo sapiens, UniProt P16471).
T6 construct: a native PRLR expressing cell line (T47D); endogenous in cells; host or cells: T47D
T6 sequence (P16471 25-622): T3 sequence (P16471 25-622)
Put plainly: FACS cell surface binding. The procedure:
as §4, §5

T1 sequence (P16471 with tags, fused parts or gaps): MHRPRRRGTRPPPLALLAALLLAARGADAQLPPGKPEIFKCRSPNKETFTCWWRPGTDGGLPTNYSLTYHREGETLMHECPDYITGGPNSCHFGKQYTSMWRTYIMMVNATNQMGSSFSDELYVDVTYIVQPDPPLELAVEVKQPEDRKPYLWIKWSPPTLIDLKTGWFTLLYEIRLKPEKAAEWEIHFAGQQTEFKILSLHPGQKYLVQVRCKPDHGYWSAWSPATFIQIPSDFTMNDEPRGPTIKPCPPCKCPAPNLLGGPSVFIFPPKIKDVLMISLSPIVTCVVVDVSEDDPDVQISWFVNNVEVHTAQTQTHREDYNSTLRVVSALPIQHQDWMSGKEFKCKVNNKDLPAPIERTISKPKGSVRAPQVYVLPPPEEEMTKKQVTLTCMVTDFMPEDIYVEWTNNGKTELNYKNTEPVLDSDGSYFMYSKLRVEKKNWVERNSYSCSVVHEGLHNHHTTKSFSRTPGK
T2 sequence (P16471 with tags, fused parts or gaps): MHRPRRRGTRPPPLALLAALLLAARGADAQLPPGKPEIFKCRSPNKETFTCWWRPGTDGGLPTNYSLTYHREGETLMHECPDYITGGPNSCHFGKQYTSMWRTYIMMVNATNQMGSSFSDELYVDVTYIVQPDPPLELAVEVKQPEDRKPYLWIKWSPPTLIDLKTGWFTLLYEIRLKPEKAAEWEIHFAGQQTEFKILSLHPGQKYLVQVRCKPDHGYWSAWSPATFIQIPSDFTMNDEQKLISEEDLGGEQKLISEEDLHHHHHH
Chain of Macaca fascicularis PRLR (mfPRLR.mmh; SEQ ID NO:403) (as listed by the source): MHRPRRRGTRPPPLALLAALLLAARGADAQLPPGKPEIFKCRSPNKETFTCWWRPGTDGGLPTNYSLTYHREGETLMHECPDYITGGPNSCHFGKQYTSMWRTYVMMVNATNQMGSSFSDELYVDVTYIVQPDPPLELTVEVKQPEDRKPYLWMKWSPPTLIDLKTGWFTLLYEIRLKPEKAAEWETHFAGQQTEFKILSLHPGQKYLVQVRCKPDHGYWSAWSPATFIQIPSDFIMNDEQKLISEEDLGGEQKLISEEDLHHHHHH

B1: H1H6803P-DM1 (conjugate)
VH: EVQLVESGGGVVRPGGSLRLSCAASGFKFDDYGMTWVRHVPGKGLEWVSGINWNGGRTGYTDSVKGRFTISRDNAKNSLYLQMNSLRAEDTALYHCAGARRDAFDIWGQGTMVTVSS
VL: DIQMTQSPSSLSASIGDRVTITCRASQNIIKYLNWYQQNAGKAPKLLIYTASSLQSGVPSRFSGSGSGTDFTLTISSLQPEDFATYYCQQSSSSPYTFGQGTKLEIK
For the molecule B1, the “% Kill” value in the assay with PC3 cells came to 72%; with HEK293 (293) cells, 7%.

B2: H1H6793P-DM1 (conjugate)
VH: EVQLVESGGGLVQPGGSLRLSCAASGFSFSIYAMSWFRQAPGKGLEWVSAINGRGDGTHYADSVKGRFTISRDNSKTTLYLQMSSLRAEDTAVYYCAKPVMSTNGFDIWGQGTMVTVSS
VL: DIQMTQSPSTLSASVGDRVTITCRASQSISSWLAWYQLKPGKAPKLLIYKASNLESGVPSRFSGSGSGTEFTLTISSLQPDDFATYYCQQYNIYWTFGQGTKVEIK
One may read the IC50 as the concentration at which inhibition is half-maximal. Turning to B2, in the assay on PC3 cells, the “% Kill” value was found to be 72% and half-maximal inhibition (IC50) was put at 200 nM. Besides, in the assay on HEK293 (293) cells, the “% Kill” value is given as 84% and the IC50 was 100 nM.

B3: H1H6959N2: anti-PRLR antibody, human IgG1 Fc form of H2M6959N2 of Table 1; HCVR/LCVR SEQ ID NOs 306/314 (antibody, V domains shown)
VH: EVQLVESGGGLVQPGRSLRLSCAASGFTFDDYAMHWVRQAPGKGLEWVSGISWHSGIIGYADSVKGRFTISRDNAKNSLYLQMNSLRTEDAALYYCAKIGSYFYFDSWGQGTLVTVSS
VL: EIVLTQSPGTLSLSPGERATLSCRASQSVSSNYLAWYQQKPGQAPRLLIYGASSRATGIPDRFSGSGSGTDFTLTISRLEPEDFAVYYCQQFGSSGYTFGQGTNLEIK
As for B3, the “FACS Cell Binding” value stood at 1 Fold Above Background in the assay with HEK293 parental cells; 6 Fold Above Background in assay [4]; 11 Fold Above Background in assay [5]; 2 Fold Above Background in assay [6]; 9 Fold Above Background in assay [7]. Moreover, the ka in assay [1] (25° C.) is 129000 M/s; in [1] (37° C.) it was 44600 M/s; in [2] (25° C.) it was 359000 M/s; in assay [2] (37° C.), 509000 M/s; in [3] (25° C.), 179000 M/s; in assay [3] (37° C.), 40600 M/s. Further, the kd in assay [1] (25° C.) was 0.0167 s⁻¹; in [1] (37° C.), 0.0165 s⁻¹; in assay [2] (25° C.) it was 0.000518 s⁻¹; in assay [2] (37° C.) it was 0.0023 s⁻¹; in assay [3] (25° C.), 0.036 s⁻¹; in assay [3] (37° C.) it was 0.0277 s⁻¹.

B4: H1H6959N2-DM1 (conjugate)
VH: B3 VH
VL: B3 VL
For the molecule B4, in the assay on PC3 cells, the “% Kill” value was found to be 79% and half-maximal inhibition (IC50) required 150 nM. In the assay with HEK293 (293) cells, this molecule gave an IC50 of 75 nM.

For the origin of these results see patent publication US10925971B2, “Methods of treating PRLR positive breast cancer” (Regeneron Pharmaceuticals, Inc., priority 2016, dated 2021).
